{"source": "patent US20200199233A1", "about": "(Regeneron, published 2020)", "binders": {"B1": {"name": "bs24963D (bispecific antibody, IgG4, V domains shown)", "VH 1": "QVQLQESGPGLVKPSETLSLTCTVSGGSISSYYWSWIRQPPGKGLEWIGYIYYSGITHYNPSLKSRVTISVDTSKIQFSLKLSSVTAADTAVYYCARWGVRRDYYYYGMDVWGQGTTVTVSS", "VH 2": "EVQLVESGGGLEQPGRSLRLSCTASGFAFGDHTMSWVRQAPGKGLEWVGFIRSRAYGGTTEYAASVKGRFTISRDDSKSIAYLQMDSLKTEDTAVYYCTSGGYDSSLHYYYYYHGMDVWGRGTTVTVSS", "VL": "not shown", "notes": "Two different heavy chains pair with a common light chain; also called REGN5668; anti-MUC16xCD28"}, "B2": {"name": "Parental 2 hCD28 (for bs24963D) (antibody, V domains shown)", "VH": "B1 VH 1", "VL": "not shown"}, "B3": {"name": "bs32897D (bispecific antibody, V domains shown)", "VH 1": "EVQLVESGGGLVQPGGSLRLSCAASGFTFSRNNMHWVRQAPGKGLEYVSGISSNGGRTYYADSVKGRFTISRDNSKNTLYLQMGGLRAADMAVYFCTRDDELLSFDYWGQGTLVTVSS", "VH 2": "QVQLVESGGGLVKPGGSLRLSCAASGFTFRDYSMSWIRQAPGKGLEWVSYVTFFNSAIYYADSVKGRFTISRDNAKNSLYLQMNSLRAEDTAVYYCAREREPIVGGFDYWGQGTLVTVSS", "VL": "not shown", "notes": "also called anti-MUC16xCD28"}, "B4": {"name": "Parental 1 hCD28 (for bs32897D) (antibody, V domains shown)", "VH": "B3 VH 1", "VL": "not shown"}}, "key": {"[1]": {"biological_target": "T1, human CD28 on human T cells (human, UniProt P10747 19-152)", "experiment": "cell-based or functional assay"}, "[2]": {"biological_target": "T1, human CD28 on human T cells", "experiment": "cell-based or functional assay", "remark": "listed apart in the source"}, "[3]": {"biological_target": "T1, human CD28 on human T cells", "experiment": "flow cytometry, human CD4+ T cells", "procedure": "(§1) After incubation, the cells were washed twice with cold PBS containing 1% filtered FBS and a PE-conjugated or Alexa647-conjugated anti-human secondary antibody was added to the MUC16 expressing cells or Human/Cyno T cells, respectively, and incubated for an additional 30 minutes. Live/dead dye was added to Human and Cynomolgus T cells incubations. Wells containing no antibody or secondary only were used as a control.\n(§2) After incubation with Human or Cynomolgus T cells, cells were washed, and stained with a cocktail of anti-CD2, ant-CD16, anti-CD4, and anti-CD8 antibodies in Brilliant Stain Buffer for an extra 20 min incubation at 4° C. After wash, cells were re-suspended in 200 μL cold PBS containing 1% filtered FBS, gated in a Live/CD2+/CD4+/CD16− or Live/CD2+/CD8+/CD16− gate and analyzed by Flow cytometry on a BD FACS LSR-Fortessa-X20."}, "[4]": {"biological_target": "T1, human CD28 on human T cells", "experiment": "flow cytometry, human CD8+ T cells", "procedure": "as §1, §2"}, "[5]": {"biological_target": "T2, cynomolgus CD28 on cynomolgus T cells (cynomolgus monkey, UniProt Q0PDN3 19-220)", "T2 construct": "whole, on cells", "experiment": "flow cytometry, cynomolgus CD4+ T cells", "procedure": "as §1, §2"}, "[6]": {"biological_target": "T2, cynomolgus CD28 on cynomolgus T cells", "experiment": "flow cytometry, cynomolgus CD8+ T cells", "procedure": "as §1, §2"}, "hCD28.mmh": {"biological_target": "T3, hCD28.mmh (human)", "T3 construct": "also called hCD28 with C-term myc-myc-6xHis tag; human CD28 ecto domain (N19-P152) having a myc-myc-his tag", "experiment": "SPR (Biacore), 37 C, antibody captured by anti-human Fc, hCD28.mmh injected", "procedure": "(§3) The dissociation of bound hMUC16, hCD28, and mCD28 reagents was monitored for 10 minutes in HBS-ET running buffer. Association (kₐ) and dissociation (kd) rate constants were determined by fitting the real-time binding sensorgrams to a 1:1 binding model with mass transport limitation using Scrubber evaluation software version 2.0c. Binding dissociation equilibrium constants (KD) and dissociative half-lives (t½) were calculated from the kinetic rate constants as:"}, "hMUC16.mmh": {"biological_target": "T4, hMUC16.mmh (human)", "T4 construct": "also called hMUC16 with C-term myc-myc-6xHis tag; human MUC16 membrane proximal domain (P13810-P14451) having a myc-myc-his tag", "T4 chain": "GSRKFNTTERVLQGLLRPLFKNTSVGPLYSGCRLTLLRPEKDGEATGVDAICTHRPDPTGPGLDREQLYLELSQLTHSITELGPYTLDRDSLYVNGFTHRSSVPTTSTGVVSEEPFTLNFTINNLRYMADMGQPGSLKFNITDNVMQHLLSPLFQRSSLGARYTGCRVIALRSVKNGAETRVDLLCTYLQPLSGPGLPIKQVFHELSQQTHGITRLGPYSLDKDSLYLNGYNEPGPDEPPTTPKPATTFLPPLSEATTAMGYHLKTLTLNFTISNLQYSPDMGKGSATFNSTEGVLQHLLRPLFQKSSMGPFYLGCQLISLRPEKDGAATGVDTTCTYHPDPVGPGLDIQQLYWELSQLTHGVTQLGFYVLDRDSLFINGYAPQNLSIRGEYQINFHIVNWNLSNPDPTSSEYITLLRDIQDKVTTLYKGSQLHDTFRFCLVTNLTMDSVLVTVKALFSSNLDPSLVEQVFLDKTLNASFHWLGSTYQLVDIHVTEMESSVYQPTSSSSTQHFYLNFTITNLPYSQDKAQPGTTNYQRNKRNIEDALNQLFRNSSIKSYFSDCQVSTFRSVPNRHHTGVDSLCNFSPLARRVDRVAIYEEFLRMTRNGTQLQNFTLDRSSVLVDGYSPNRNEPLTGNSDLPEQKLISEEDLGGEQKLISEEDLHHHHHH", "experiment": "SPR (Biacore), 37 C, antibody captured by anti-human Fc, hMUC16.mmh injected", "procedure": "as §3"}}, "note": "“And” between values parts separate entries of the source, which are not always exact repeats. Equal entries are not always repeated."}
{"binder": "B1", "values": [{"measurement": "IL-2 release from primary human CD4+ T cells, fold induction, OVCAR3 target cells, 5 nM hIgG4 isotype control", "setting": "[1]", "result": 1.33, "unit": "fold"}, {"measurement": "IL-2 release from primary human CD4+ T cells, fold induction, PEO-1 target cells, 5 nM hIgG4 isotype control", "setting": "[1]", "result": 1.12, "unit": "fold"}, {"measurement": "IL-2 release from primary human CD4+ T cells, EC50, OVCAR3 target cells, 5 nM REGN4018", "setting": "[2]", "result": 0.401, "unit": "nM"}, {"measurement": "IL-2 release from primary human CD4+ T cells, EC50, PEO-1 target cells, 5 nM REGN4018", "setting": "[2]", "result": 0.996, "unit": "nM"}, {"measurement": "IL-2 release from primary human CD4+ T cells, fold induction, OVCAR3 target cells, 5 nM REGN4018", "setting": "[2]", "result": 5.32, "unit": "fold"}, {"measurement": "IL-2 release from primary human CD4+ T cells, fold induction, PEO-1 target cells, 5 nM REGN4018", "setting": "[2]", "result": 10.9, "unit": "fold"}, {"measurement": "EC50", "setting": "[3]", "result": 261, "unit": "nM"}, {"measurement": "EC50", "setting": "[4]", "result": 253, "unit": "nM"}, {"measurement": "EC50", "setting": "[5]", "result": 203, "unit": "nM"}, {"measurement": "EC50", "setting": "[6]", "result": 122, "unit": "nM"}, {"measurement": "Kd", "setting": "hCD28.mmh", "result": 165, "unit": "nM"}, {"measurement": "T½", "setting": "hCD28.mmh", "result": 2.1, "unit": "min"}, {"measurement": "koff", "setting": "hCD28.mmh", "result": 0.00538, "unit": "s⁻¹"}, {"measurement": "kon", "setting": "hCD28.mmh", "result": 32700, "unit": "M⁻¹ s⁻¹"}, {"measurement": "Kd", "setting": "hMUC16.mmh", "result": "0.933 nM and 0.912 nM"}, {"measurement": "T½", "setting": "hMUC16.mmh", "result": "53.1 min and 28 min"}, {"measurement": "koff", "setting": "hMUC16.mmh", "result": "0.000412 s⁻¹ and 0.000218 s⁻¹"}, {"measurement": "kon", "setting": "hMUC16.mmh", "result": "441000 M⁻¹ s⁻¹ and 238000 M⁻¹ s⁻¹"}]}
{"binder": "B2", "values": [{"measurement": "IL-2 release from primary human CD4+ T cells, fold induction, OVCAR3 target cells, 5 nM hIgG4 isotype control", "setting": "[1]", "result": 1.12, "unit": "fold"}, {"measurement": "IL-2 release from primary human CD4+ T cells, fold induction, PEO-1 target cells, 5 nM hIgG4 isotype control", "setting": "[1]", "result": 1.03, "unit": "fold"}, {"measurement": "IL-2 release from primary human CD4+ T cells, EC50, PEO-1 target cells, 5 nM REGN4018", "setting": "[2]", "result": 0.107, "unit": "nM"}, {"measurement": "IL-2 release from primary human CD4+ T cells, fold induction, OVCAR3 target cells, 5 nM REGN4018", "setting": "[2]", "result": 2.46, "unit": "fold"}, {"measurement": "IL-2 release from primary human CD4+ T cells, fold induction, PEO-1 target cells, 5 nM REGN4018", "setting": "[2]", "result": 2.05, "unit": "fold"}]}
{"binder": "B3", "values": [{"measurement": "IL-2 release from primary human CD4+ T cells, fold induction, OVCAR3 target cells, 5 nM hIgG4 isotype control", "setting": "[1]", "result": 1.06, "unit": "fold"}, {"measurement": "IL-2 release from primary human CD4+ T cells, fold induction, PEO-1 target cells, 5 nM hIgG4 isotype control", "setting": "[1]", "result": 1.12, "unit": "fold"}, {"measurement": "IL-2 release from primary human CD4+ T cells, EC50, OVCAR3 target cells, 5 nM REGN4018", "setting": "[2]", "result": 0.607, "unit": "nM"}, {"measurement": "IL-2 release from primary human CD4+ T cells, fold induction, OVCAR3 target cells, 5 nM REGN4018", "setting": "[2]", "result": 5.63, "unit": "fold"}, {"measurement": "IL-2 release from primary human CD4+ T cells, fold induction, PEO-1 target cells, 5 nM REGN4018", "setting": "[2]", "result": 5.22, "unit": "fold"}, {"measurement": "EC50", "setting": "[3]", "result": 9160, "unit": "nM"}, {"measurement": "EC50", "setting": "[4]", "result": 7580, "unit": "nM"}, {"measurement": "EC50", "setting": "[5]", "result": 5700, "unit": "nM"}, {"measurement": "EC50", "setting": "[6]", "result": 3020, "unit": "nM"}]}
{"binder": "B4", "values": [{"measurement": "IL-2 release from primary human CD4+ T cells, fold induction, OVCAR3 target cells, 5 nM hIgG4 isotype control", "setting": "[1]", "result": 1.1, "unit": "fold"}, {"measurement": "IL-2 release from primary human CD4+ T cells, fold induction, PEO-1 target cells, 5 nM hIgG4 isotype control", "setting": "[1]", "result": 1.3, "unit": "fold"}, {"measurement": "IL-2 release from primary human CD4+ T cells, fold induction, OVCAR3 target cells, 5 nM REGN4018", "setting": "[2]", "result": 1.58, "unit": "fold"}, {"measurement": "IL-2 release from primary human CD4+ T cells, fold induction, PEO-1 target cells, 5 nM REGN4018", "setting": "[2]", "result": 1.42, "unit": "fold"}]}
